Target: the molecule itself
Assay: SEC

B1: Enterococcus faecalis FabI enoyl-ACP reductase (enzyme, UniProt Q820V5 1-250, looked up)
chain: MFLQNKNVVVMGVANKKSIAWGCAKALKDQGANVIYTYQNERMKKQVVKLADENDLLVECDVASDASIQAAFETIKNEVGTIDGLVHAIAFAKKEELSGNVSDITRDGFLLAQDISSYSLLAVTHYAKPLLNPGSGIVTLTYLGSERAIPNYNMMGIAKASLETAVKYLAFELAADKIRVNGISAGAIKTLAVTGVKDYDQLISISNERTPDKTGVTIEEVGNTCAFLVSDLASGVVGDIIYVDKGVHLT
- stoichiometry N: 2

From publication PMC3791895 (mBio, 2013)
